In article PMC5311487:

T1: MEC-8 RRM1 (Caenorhabditis elegans, UniProt G5ECJ4 28-123, C54A;C102A)
T1 sequence: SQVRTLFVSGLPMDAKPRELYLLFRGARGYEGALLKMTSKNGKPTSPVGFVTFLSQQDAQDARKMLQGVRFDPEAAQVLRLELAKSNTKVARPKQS


The binders below were run against T1, MEC-8 RRM1 (assay: ITC).

Binder | Kd [µM]
AACACAUUUUUUUUAACACA (ssRNA) [10-nt spacer (G2A/G16A)] | 0.9 ± 0.1

Target: T1, MEC-8 RRM1
Assay: ITC
Remark: another data set of the same source

Binder | Kd [µM]
AGCACAUUUUUUUUUUAGCACA (ssRNA) [12-nt spacer] | 0.08 ± 0.02
AGCACAUUUUUUUUUUUUAGCACA (ssRNA) [14-nt spacer] | 0.11 ± 0.07
AGCACAUUUUUUUUAGCACA (ssRNA) [10-nt spacer] | 0.15 ± 0.04
AGCACAUUUUUUAGCACA (ssRNA) [8-nt spacer] | 0.18 ± 0.04
AAUCCAUUGCACUCCGGAUUU (structured_RNA) [U1A stem-loop] | 0.24 ± 0.02
AGCACAUUUU (ssRNA) [6-mer + 4U] | 1.75 ± 0.03
AGCACAUUAGCACA (ssRNA) [4-nt spacer] | 0.38 ± 0.09
AUCACA (ssRNA) [6-mer (G2U)] | 20.4 ± 0.8
AGCACAUUUUAGCACA (ssRNA) [6-nt spacer] | 0.33 ± 0.01
AGCACAUUUUUUUUAGCAUA (ssRNA) [10-nt spacer (WT/C19U)] | 0.45 ± 0.03
ACCACAUUUUUUUUACCACA (ssRNA) [10-nt spacer (G2C/G16C)] | 1.56 ± 0.01
AGCACAUUUUUUUUAUCACA (ssRNA) [10-nt spacer (WT/G16U)] | 0.26 ± 0.08
AUCACAUUUUUUUUAUCACA (ssRNA) [10-nt spacer (G2U/G16U)] | 1.29 ± 0.04
